{
  "source": "IntAct's records for PubMed 21300063",
  "parents": {"B1": {"name": "Alsin (Homo sapiens), Q96Q42 (parent)", "chain": "MDSKKRSSTEAEGSKERGLVHIWQAGSFPITPERLPGWGGKTVLQAALGVKHGVLLTEDGEVYSFGTLPWRSGPVEICPSSPILENALVGQYVITVATGSFHSGAVTDNGVAYMWGENSAGQCAVANQQYVPEPNPVSIADSEASPLLAVRILQLACGEEHTLALSISREIWAWGTGCQLGLITTAFPVTKPQKVEHLAGRVVLQVACGAFHSLALVQCLPSQDLKPVPERCNQCSQLLITMTDKEDHVIISDSHCCPLGVTLTESQAENHASTALSPSTETLDRQEEVFENTLVANDQSVATELNAVSAQITSSDAMSSQQNVMGTTEISSARNIPSYPDTQAVNEYLRKLSDHSVREDSEHGEKPVPSQPLLEEAIPNLHSPPTTSTSALNSLVVSCASAVGVRVAATYEAGALSLKKVMNFYSTTPCETGAQAGSSAIGPEGLKDSREEQVKQESMQGKKSSSLVDIREEETEGGSRRLSLPGLLSQVSPRLLRKAARVKTRTVVLTPTYSGEADALLPSLRTEVWTWGKGKEGQLGHGDVLPRLQPLCVKCLDGKEVIHLEAGGYHSLALTAKSQVYSWGSNTFGQLGHSDFPTTVPRLAKISSENGVWSIAAGRDYSLFLVDTEDFQPGLYYSGRQDPTEGDNLPENHSGSKTPVLLSCSKLGYISRVTAGKDSYLALVDKNIMGYIASLHELATTERRFYSKLSDIKSQILRPLLSLENLGTTTTVQLLQEVASRFSKLCYLIGQHGASLSSFLHGVKEARSLVILKHSSLFLDSYTEYCTSITNFLVMGGFQLLAKPAIDFLNKNQELLQDLSEVNDENTQLMEILNTLFFLPIRRLHNYAKVLLKLATCFEVASPEYQKLQDSSSCYECLALHLGRKRKEAEYTLGFWKTFPGKMTDSLRKPERRLLCESSNRALSLQHAGRFSVNWFILFNDALVHAQFSTHHVFPLATLWAEPLSEEAGGVNGLKITTPEEQFTLISSTPQEKTKWLRAISQAVDQALRGMSDLPPYGSGSSVQRQEPPISRSAKYTFYKDPRLKDATYDGRWLSGKPHGRGVLKWPDGKMYSGMFRNGLEDGYGEYRIPNKAMNKEDHYVGHWKEGKMCGQGVYSYASGEVFEGCFQDNMRHGHGLLRSGKLTSSSPSMFIGQWVMDKKAGYGVFDDITRGEKYMGMWQDDVCQGNGVVVTQFGLYYEGNFHLNKMMGNGVLLSEDDTIYEGEFSDDWTLSGKGTLTMPNGDYIEGYFSGEWGSGIKITGTYFKPSLYESDKDRPKVFRKLGNLAVPADEKWKAVFDECWRQLGCEGPGQGEVWKAWDNIAVALTTSRRQHRDSPEILSRSQTQTLESLEFIPQHVGAFSVEKYDDIRKYLIKACDTPLHPLGRLVETLVAVYRMTYVGVGANRRLLQEAVKEIKSYLKRIFQLVRFLFPELPEEGSTIPLSAPLPTERKSFCTGKSDSRSESPEPGYVVTSSGLLLPVLLPRLYPPLFMLYALDNDREEDIYWECVLRLNKQPDIALLGFLGVQRKFWPATLSILGESKKVLPTTKDACFASAVECLQQISTTFTPSDKLKVIQQTFEEISQSVLASLHEDFLWSMDDLFPVFLYVVLRARIRNLGSEVHLIEDLMDPYLQHGEQGIMFTTLKACYYQIQREKLN"}},
  "data": [
    {"variants_of": "B1", "settings": "with rab5a_human RAB5A", "values": [
      {"variant": "C157Y", "effect of a mutation on the interaction": "increasing interaction"}
    ]},
    {"variants_of": "B1", "settings": "with eea1_human EEA1, Q15075", "values": [
      {"variant": "C157Y", "effect of a mutation on the interaction": "disrupting interaction"}
    ]},
    {"variants_of": "B1", "settings": "with rab5a_human RAB5A", "remark": "another data set of the same source", "values": [
      {"variant": "G540E", "effect of a mutation on the interaction": "increasing interaction"}
    ]},
    {"variants_of": "B1", "settings": "with eea1_human EEA1, Q15075", "remark": "another data set of the same source", "values": [
      {"variant": "G540E", "effect of a mutation on the interaction": "disrupting interaction"}
    ]},
    {"variants_of": "B1", "settings": "with eea1_human EEA1, Q15075", "remark": "another data set of the same source", "values": [
      {"variant": "P1603A", "effect of a mutation on the interaction": "disrupting interaction"}
    ]}
  ]
}
